Test results: publication PMC5693891

Key:
[1] = target: soluble human neonatal Fc receptor (FcRn) (human) (UniProt P55899); experiment: BLI; Octet-Red96, biotin-labeled human FcRn on streptavidin tips, Fc proteins 10 to 0.625 µM as analytes, PBS with 0.02% Tween 20, pH 6.0, 37°C, 1:1 model
[2] = target: mFc (previously reported monomeric IgG1 Fc) L351S;T366R;L368H;P395K (UniProt P01857); experiment: Bio-layer interferometry (Octet-Red96, Pall ForteBio); details: pH 6.0; 37°C; PBS (composition not stated); PBS adjusted to pH 6.0 or pH 7.4 (same buffer at both pH)
[3] = target: 1-B10-9 (new monomeric IgG1 Fc) T366R;L368H;P395K;K409T;M428L (UniProt P01857); experiment: as above; details: pH 6.0; 37°C; PBS (composition not stated); PBS adjusted to pH 6.0 or pH 7.4 (same buffer at both pH)
[4] = target: wild-type IgG1 Fc (dimeric) (UniProt P01857); experiment: as above; details: pH 6.0; 37°C; PBS (composition not stated); PBS adjusted to pH 6.0 or pH 7.4 (same buffer at both pH)
[5] = target: 1-D1-15 (Fc mutant, monomer/dimer mixture) T366H; Leu368 unchanged; Leu351 not mutated to Ser; position 395 is Lys or Arg by library design; residues at 409, 428 and 434 not stated in the text (Figure 2B only) (UniProt P01857); experiment: as above; details: pH 6.0; 37°C; PBS (composition not stated); PBS adjusted to pH 6.0 or pH 7.4 (same buffer at both pH)
FcRn (Homo sapiens) = FcRn (Homo sapiens) (UniProt P55899); details: cited from earlier work
Sequence of FcRn (Homo sapiens) (P55899 24-365, chain 1 of 2): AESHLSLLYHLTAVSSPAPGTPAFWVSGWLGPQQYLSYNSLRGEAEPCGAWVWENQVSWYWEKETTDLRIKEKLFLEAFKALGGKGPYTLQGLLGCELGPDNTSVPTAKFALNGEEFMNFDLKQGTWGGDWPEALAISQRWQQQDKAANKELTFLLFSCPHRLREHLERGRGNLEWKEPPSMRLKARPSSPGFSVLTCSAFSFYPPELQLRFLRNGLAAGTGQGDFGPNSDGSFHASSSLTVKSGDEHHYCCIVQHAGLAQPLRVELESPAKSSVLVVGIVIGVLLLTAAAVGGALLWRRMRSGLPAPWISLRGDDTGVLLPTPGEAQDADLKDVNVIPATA
Sequence of FcRn (Homo sapiens) (partner, as listed by the source, chain 2 of 2): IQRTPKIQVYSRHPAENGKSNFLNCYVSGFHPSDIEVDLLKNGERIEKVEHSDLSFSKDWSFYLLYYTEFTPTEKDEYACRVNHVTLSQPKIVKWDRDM

Sequence of soluble human neonatal Fc receptor (FcRn) (human) (P55899 24-297, chain 1 of 2): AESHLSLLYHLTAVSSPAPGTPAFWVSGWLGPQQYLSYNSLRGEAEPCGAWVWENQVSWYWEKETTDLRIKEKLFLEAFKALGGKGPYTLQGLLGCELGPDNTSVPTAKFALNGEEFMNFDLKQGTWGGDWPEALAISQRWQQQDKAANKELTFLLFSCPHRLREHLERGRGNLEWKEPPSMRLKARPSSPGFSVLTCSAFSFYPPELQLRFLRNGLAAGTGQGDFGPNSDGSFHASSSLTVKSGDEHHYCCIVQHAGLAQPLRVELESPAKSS
Sequence of soluble human neonatal Fc receptor (FcRn) (human) (P61769 21-119, chain 2 of 2, further chain): as the sequence (partner, as listed by the source, chain 2 of 2) above

wild-type dimeric IgG1 Fc (domain or fragment)
Kd [1]: 0.26 µM | koff [1]: 0.0003 s⁻¹ | kon [1]: 1100 M⁻¹ s⁻¹

neonatal Fc receptor (FcRn), soluble, biotinylated
koff [2]: 0.00064 s⁻¹ | kon [2]: 1200 M⁻¹ s⁻¹ | koff [3]: 0.00056 s⁻¹ | kon [3]: 1100 M⁻¹ s⁻¹ | koff [4]: 0.0003 s⁻¹ | kon [4]: 1100 M⁻¹ s⁻¹ | kon [5]: 3800 M⁻¹ s⁻¹

IgG1 Fc Fc (from UniProt P01857)
Kd (FcRn (Homo sapiens)): 0.11 µM
